Assay results published in patent US20240052047A1 (Pfizer, published 2024).

Experiments:
Experiment in all cases: SPR Biacore 8K+, 37 C; mAb-4894 captured by anti-Fab, antigen as analyte; 1:1 Langmuir fit
Human gp130 = biological target: T1, Human gp130 (human, UniProt P40189 23-619)
T1 construct: Soluble analyte in SPR and antigen in ELISA/screens; also called huGP130
T1 sequence: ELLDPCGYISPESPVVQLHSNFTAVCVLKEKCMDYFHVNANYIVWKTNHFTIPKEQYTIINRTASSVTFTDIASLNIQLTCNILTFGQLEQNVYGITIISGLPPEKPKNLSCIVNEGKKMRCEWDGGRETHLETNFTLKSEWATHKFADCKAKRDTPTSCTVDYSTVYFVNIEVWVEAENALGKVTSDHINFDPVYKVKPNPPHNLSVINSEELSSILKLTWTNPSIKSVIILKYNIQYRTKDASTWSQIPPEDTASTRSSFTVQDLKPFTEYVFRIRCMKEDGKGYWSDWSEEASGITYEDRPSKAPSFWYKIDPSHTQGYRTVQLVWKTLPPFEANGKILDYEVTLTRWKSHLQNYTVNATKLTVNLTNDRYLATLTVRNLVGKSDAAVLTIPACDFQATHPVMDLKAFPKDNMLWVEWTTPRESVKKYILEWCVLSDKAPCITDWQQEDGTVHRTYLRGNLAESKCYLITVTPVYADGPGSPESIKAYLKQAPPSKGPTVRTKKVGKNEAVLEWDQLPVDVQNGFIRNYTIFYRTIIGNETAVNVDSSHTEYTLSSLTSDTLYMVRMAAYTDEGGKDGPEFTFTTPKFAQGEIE
Procedure: (§1) The crossreactivity of mAb-4894 to human and cynomolgus monkey antigens, gp130 (human—SEQ ID NO: 45, cynomolgus—SEQ ID No: 46) and IL27RA (human—SEQ ID NO: 41, cynomolgus—SEQ ID No: 42), was measured by surface plasmon resonance by anti-FAB capture of mAb-4894 (containing arms of anti-IL27RA-4880 EE and anti-gp130-4875 RR) on a biacore chip. Human or cynomolgus monkey IL27RA or gp130 was flowed over the chip and on and off rates were determined, and the affinity constants calculated.
(§2) Flow cell 1 for each channel was used as a reference flow cell. After antibody capture, three-fold dilution series of cytokines with concentrations ranging from 405 nM to 15 nM for huGP130 and cyGP130 and 45 nM to 1.67 nM for huIL27R and cyIL27R or HBS-EP+ buffer were injected over the sensor surface for 60 seconds at 50 μl/minute. The dissociation was monitored for 600 seconds and the surface was regenerated with 2 injections of 10 mM Glycine pH 1.7 at 30 μl/minute. The data was double referenced (Myszka, D., J. Mol. Recognit 1999; 279-284). Binding affinities and rate constants were determined for human and cyno GP130 and IL27R by fitting the resulting sensorgram data to a 1:1 Langmuir model in BIAcore Insight Evaluation software version 3.0.12.15655 (Cytiva).

Cynomolgus monkey gp130 = biological target: T2, Cynomolgus monkey gp130 (cynomolgus monkey, UniProt P40189 23-619 (human entry), limits assumed)
T2 construct: Soluble SPR analyte; also called Cyno GP130; cyGP130
T2 chain: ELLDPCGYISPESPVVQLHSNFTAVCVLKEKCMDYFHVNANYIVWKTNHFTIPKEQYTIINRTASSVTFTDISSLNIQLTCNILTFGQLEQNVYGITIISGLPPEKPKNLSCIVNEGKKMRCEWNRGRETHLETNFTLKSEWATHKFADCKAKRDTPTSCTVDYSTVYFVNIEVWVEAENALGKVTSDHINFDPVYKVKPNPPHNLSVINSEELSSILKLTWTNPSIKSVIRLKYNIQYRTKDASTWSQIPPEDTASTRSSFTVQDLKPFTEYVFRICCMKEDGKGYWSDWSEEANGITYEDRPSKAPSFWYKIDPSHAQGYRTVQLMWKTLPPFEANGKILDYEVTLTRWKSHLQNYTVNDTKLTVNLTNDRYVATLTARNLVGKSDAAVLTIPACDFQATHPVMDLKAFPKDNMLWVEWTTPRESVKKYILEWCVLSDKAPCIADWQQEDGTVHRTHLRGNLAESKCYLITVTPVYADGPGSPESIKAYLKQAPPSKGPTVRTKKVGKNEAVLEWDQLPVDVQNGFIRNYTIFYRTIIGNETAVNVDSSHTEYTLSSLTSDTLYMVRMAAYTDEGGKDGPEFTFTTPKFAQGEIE
Procedure: as §1, §2

Cynomolgus monkey IL27RA = biological target: T3, Cynomolgus monkey IL27RA (cynomolgus monkey)
T3 construct: Soluble SPR analyte; also called Cyno IL27R; cyIL27R
T3 chain: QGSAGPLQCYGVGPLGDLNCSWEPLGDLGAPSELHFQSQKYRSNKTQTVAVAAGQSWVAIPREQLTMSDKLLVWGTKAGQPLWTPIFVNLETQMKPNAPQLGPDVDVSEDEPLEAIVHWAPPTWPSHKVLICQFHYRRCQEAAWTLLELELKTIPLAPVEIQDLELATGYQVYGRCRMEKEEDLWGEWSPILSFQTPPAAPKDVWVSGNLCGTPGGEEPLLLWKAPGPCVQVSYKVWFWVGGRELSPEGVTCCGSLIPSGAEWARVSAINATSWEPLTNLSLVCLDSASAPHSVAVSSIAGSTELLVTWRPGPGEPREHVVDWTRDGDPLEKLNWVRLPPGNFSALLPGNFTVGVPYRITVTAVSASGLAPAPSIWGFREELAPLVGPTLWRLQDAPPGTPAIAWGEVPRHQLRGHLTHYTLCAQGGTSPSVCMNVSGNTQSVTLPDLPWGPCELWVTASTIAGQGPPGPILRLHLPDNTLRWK
Procedure: as §1, §2

B1: mAb-4894 anti-IL27RA/gp130 bispecific antibody (bispecific antibody, human IgG1)
heavy 1: EVQLVESGGGLVQPGGSLRLSCAASGFTFEYFGLQWVRQAPGKGLEWIGYTSSGGNYEYYEETLKGRFTISRDNAKNSLYLQMNSLRAEDTAVYYCARTKTGDYWGQGTLVTVSSASTKGPSVFPLAPSSKSTSGGTAALGCLVKDYFPEPVTVSWNSGALTSGVHTFPAVLQSSGLYSLSSVVTVPSSSLGTQTYICNVNHKPSNTKVDKKVEPKSCEKTHTCPPCPAPEAAGAPSVFLFPPKPKDTLMISRTPEVTCVVVDVSHEDPEVKFNWYVDGVEVHNAKTKPREEQYNSTYRVVSVLTVLHQDWLNGKEYKCKVSNKALPAPIEKTISKAKGQPREPQVYTLPPSREEMTKNQVSLTCEVKGFYPSDIAVEWESNGQPENNYKTTPPVLDSDGSFFLYSKLTVDKSRWQQGNVFSCSVMHEALHNHYTQKSLSLSPGK
light 1: DIQMTQSPSSLSASVGDRVTITCRASQDIGNSLTWYQQKPGKAPKRVIFGATGLAAGVPSRFSGSGSGTDFTLTISSLQPEDFATYYCLQSKQYPYTFGQGTKLEIKRTVAAPSVFIFPPSDEQLKSGTASVVCLLNNFYPREAKVQWKVDNALQSGNSQESVTEQDSKDSTYSLSSTLTLSKADYEKHKVYACEVTHQGLSSPVTKSFNRGEC
heavy 2: QVQLVQSGAEVKKPGSSVKVSCKVSGGSISSYYWSWVRQAPGQGLEWIGRIYITGNTNYNPSLKDRVTMTVDTSTSTHYMELSSLRSEDTAVYYCAREGPKLGIFDYWGQGTLVTVSSASTKGPSVFPLAPSSKSTSGGTAALGCLVKDYFPEPVTVSWNSGALTSGVHTFPAVLQSSGLYSLSSVVTVPSSSLGTQTYICNVNHKPSNTKVDKKVEPKSCRKTHTCPPCPAPEAAGAPSVFLFPPKPKDTLMISRTPEVTCVVVDVSHEDPEVKFNWYVDGVEVHNAKTKPREEQYNSTYRVVSVLTVLHQDWLNGKEYKCKVSNKALPAPIEKTISKAKGQPREPQVYTLPPSREEMTKNQVSLTCLVKGFYPSDIAVEWESNGQPENNYKTTPPVLDSDGSFFLYSRLTVDKSRWQQGNVFSCSVMHEALHNHYTQKSLSLSPGK
light 2: DIQMTQSPSSLSASVGDRVTITCRASQSVSSSYLAWYQQKPGKAPKLLIYGTESRATGVPSRFSGSGSGTDFTLTISSLQPEDFATYYCQQYGGYPTFGGGTKVEIKRTVAAPSVFIFPPSDEQLKSGTASVVCLLNNFYPREAKVQWKVDNALQSGNSQESVTEQDSKDSTYSLSSTLTLSKADYEKHKVYACEVTHQGLSSPVTKSFNRGEC
notes: Human IgG1 EE/RR heterodimer with L234A, L235A, G237A (EU); also called GBT-IL27R-4894; GBT-IL-27R-4894
Question: What does the source list for B1?
Answer: Kd (Human gp130): 170 nM; koff (Human gp130): 0.0566 s⁻¹; kon (Human gp130): 337000 M⁻¹ s⁻¹; Kd (Cynomolgus monkey gp130): 188 nM; koff (Cynomolgus monkey gp130): 0.0403 s⁻¹; kon (Cynomolgus monkey gp130): 215000 M⁻¹ s⁻¹; Kd (Cynomolgus monkey IL27RA): 1.68 nM; koff (Cynomolgus monkey IL27RA): 0.00195 s⁻¹; kon (Cynomolgus monkey IL27RA): 1.17e+06 M⁻¹ s⁻¹
